# In patent publication US20060241289A1:
# Like-named read-outs stand apart in the source and are kept apart here.
# How the values were obtained:
# [1] = target: TSH receptor coated onto plastic tubes (UniProt P16473); experiment: 125I-TSH binding to TSHR coated tubes, assay buffer only
# [2] = target: TSH receptor coated onto plastic tubes or ELISA plate wells (RSR Ltd) / detergent solubilised TSH receptor; experiment: 125I-TSH on TSHR coated tubes, buffer only
# [3] = target: TSH receptor coated onto plastic tubes or ELISA plate wells (RSR Ltd) / detergent solubilised TSH receptor; experiment: 125I-TSH on TSHR coated tubes, healthy blood donor serum pool only
# [4] = target: TSH receptor coated onto plastic tubes or ELISA plate wells (RSR Ltd) / detergent solubilised TSH receptor; experiment: 125I-TSH on TSHR coated tubes, assay buffer only
# [5] = target: TSH receptor coated onto plastic tubes or ELISA plate wells (RSR Ltd) / detergent solubilised TSH receptor; experiment: 125I-TSH on TSHR coated tubes, healthy blood donor serum pool only; remark: listed apart in the source
# [6] = target: TSH receptor coated onto plastic tubes (UniProt P16473); experiment: 125I-TSH binding to TSHR coated tubes, assay buffer only; remark: listed apart in the source
# [7] = target: TSH receptor coated onto plastic tubes or ELISA plate wells (RSR Ltd) / detergent solubilised TSH receptor; experiment: 125I-TSH on TSHR coated tubes, buffer only; remark: listed apart in the source
# [8] = target: hTSH receptor expressed on CHO cells (human) (UniProt P16473); experiment: cell-based or functional assay
# [9] = target: TSH receptor coated onto plastic tubes (UniProt P16473); experiment: TSHR coated tubes; 90/672 at 8 U/L; competitor 125I-9D33
# [10] = target: TSH receptor coated onto plastic tubes (UniProt P16473); experiment: TSHR coated tubes; 90/672 at 2 U/L; competitor 125I-9D33
# [11] = target: TSH receptor coated onto plastic tubes (UniProt P16473); experiment: TSHR coated tubes; 90/672 at 40 U/L; competitor 125I-TSH
# [12] = target: TSH receptor coated onto plastic tubes (UniProt P16473); experiment: TSHR coated tubes; 90/672 at 1 U/L; competitor 125I-TSH
# [13] = target: TSH receptor coated onto plastic tubes (UniProt P16473); experiment: TSHR coated tubes; 90/672 at 40 U/L; competitor 125I-9D33
# [14] = target: TSH receptor coated onto plastic tubes (UniProt P16473); experiment: TSHR coated tubes; 90/672 at 8 U/L; competitor 125I-TSH
# [15] = target: TSH receptor coated onto plastic tubes (UniProt P16473); experiment: TSHR coated tubes; 90/672 at 2 U/L; competitor 125I-TSH
# [16] = target: TSH receptor coated onto plastic tubes (UniProt P16473); experiment: TSHR coated tubes; 90/672 at 1 U/L; competitor 125I-9D33
# [17] = target: TSH receptor coated onto plastic tubes or ELISA plate wells (RSR Ltd) / detergent solubilised TSH receptor; experiment: inhibition of 125I-TSH binding, mean of serum and assay buffer
# [18] = target: TSH receptor coated onto plastic tubes or ELISA plate wells (RSR Ltd) / detergent solubilised TSH receptor; experiment: Scatchard analysis, 125I-Fab on TSH receptor coated tubes
# [19] = target: TSH receptor coated onto plastic tubes or ELISA plate wells (RSR Ltd) / detergent solubilised TSH receptor; experiment: 125I-TSH on TSHR coated tubes, sample diluted in assay buffer
# [20] = target: TSH receptor coated onto plastic tubes or ELISA plate wells (RSR Ltd) / detergent solubilised TSH receptor; experiment: 125I-TSH on TSHR coated tubes, sample diluted in serum
substance,measurement,setting,value
125I-labelled TSH (ligand),% 125I-TSH binding,[1],11.5%
same,% of total cpm bound,[2],14.7%
same,% of total cpm bound,[3],14.7%
same,% binding,[4],12.1%
same,% inhibition,[4],0%
same,% of total cpm bound,[5],14.9%
same,% 125I-TSH binding,[6],11.1%
same,% of total cpm bound,[7],16.3%
NIBSC 90/672,Mean cyclic AMP per well; NIBSC 90/672 0.1 units/L (pmols per well),[8],1.09
same,Mean cyclic AMP per well; NIBSC 90/672 0.3 units/L (pmols per well),[8],1.49
same,Mean cyclic AMP per well; NIBSC 90/672 1.0 units/L (pmols per well),[8],3.52
same,Mean cyclic AMP per well; NIBSC 90/672 3.0 units/L (pmols per well),[8],8.16
NIBSC 90/672 (International Standard for thyroid stimulating antibody),125I-9D33 bound (% total counts added),[9],7.1%
same,inhibition of 125I-9D33 binding (%),[9],52%
same,125I-9D33 bound (% total counts added),[10],11%
same,inhibition of 125I-9D33 binding (%),[10],28%
same,inhibition of 125I-TSH binding (%),[11],92%
same,inhibition of 125I-TSH binding (%),[12],12%
same,125I-9D33 bound (% total counts added),[13],4.1%
same,inhibition of 125I-9D33 binding (%),[13],72%
same,inhibition of 125I-TSH binding (%),[14],68%
same,inhibition of 125I-TSH binding (%),[15],23%
same,125I-9D33 bound (% total counts added),[16],13%
same,inhibition of 125I-9D33 binding (%),[16],10%
hMAb TSHR1 Fab,"Units/mg (NIBSC 90/672), inhibition of TSH binding assay",[17],300 Units/mg
same,"Units/nmole (NIBSC 90/672), inhibition of TSH binding assay",[17],15 Units/nmole
same,Ka,[18],4.5e+10 M⁻¹
same,mean units/mg (NIBSC 90/672),[19],309 units/mg
same,units/mg (NIBSC 90/672),[19]; Fab at 3 ng/mL,265 units/mg
same,units/mg (NIBSC 90/672),[19]; Fab at 10 ng/mL,291 units/mg
same,units/mg (NIBSC 90/672),[19]; Fab at 30 ng/mL,372 units/mg
same,% inhibition,[20],36%
same,mean units/mg (NIBSC 90/672),[20],288 units/mg
human TSH (from UniProt P01215 25-116; P01222 21-132) (ligand),stimulation of cyclic AMP production in CHO cells transfected with the TSH receptor,[8],10 ng/mL
